Molecular target: T1, membrane-bound HLA-A0201 molecule on T2 cells (human)
T1 construct: whole, on cells; also called surface HLA-A0201 molecules; human MHC class 1 molecule
Assay: T2 cell HLA-A0201 stabilisation, BB7.2 staining, flow cytometry
Procedure: Thus, the detection of this specific epitope is indicative of stable membrane-bound HLA-A0201 molecules loaded with peptide. Subsequent dissociation of peptides from the HLA class 1 MHC molecules results in the loss of BB7.2 monoclonal antibody binding.
T2 cells were propagated in Iscove's complete medium (iscove's medium supplemented with 10% heat-inactivated bovine serum, 120.0 units per ml of penicillin G sodium, 120 μg per ml of streptomycin sulphate, and 0.35 mg per ml of L-glutamine). The ability of PSA peptides (Table 1) to bind and stabilize surface HLA-A0201 molecules on T2 cells was determined utilizing a protocol documented in the art (Deng, Y. (1997) J Immune 158:1507-1515). In essence, 0.5×10⁶ T2 cells were incubated with 125.0 μM of the test peptide in 200.0 μl of serum-free culture medium (Iscove's medium supplemented with 120.0 units per ml of penicillin G sodium, 120.0 μg per ml of streptomycin sulphate and 0.35 mg per ml of L-glutamine) overnight at 37° C. Subsequently, cells were washed twice with Iscove's medium (without bovine serum) to remove free PSA peptide. […] The binding of BB7.2 was detected via the addition of 100.0 μl of PBA containing […] of goat anti-mouse IgG-Fc fluorescein (FITC) conjugate (BETHYL Laboratories Inc.). […] Samples were analyzed by Flow Cytometry. Results were expressed in units of Fluorescence Index (FI), calculated by the equation: […]

## DLHVISNDV [CLP-317]
  binding result: no binding
